According to the supplement of paper PMC9170038:

Columns and labels:
[1] = test system: MS2 coat protein; assay: apparent KD of MS2 coat protein, switch ON state; designed switch direction (-1 OFF switch, 1 ON switch): -1; higher = weaker reporter binding; settings: FMN input: 0 or 200 uM; Eterna round: R93 (includes R88 designs)
In short: (§1)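 Apparent KD is reported per design as the median of normalised binding-curve fits across its clusters. The RNA switches were made by on-chip transcription from Illumina sequencing clusters. SNAP-549-labelled MS2 coat protein was then added in twofold steps (0.7 or 1.5 nM to 3 µM; 0.8–1.5 h to 10–20 min per step) in 100 mM Tris-HCl pH 7.5, 80 mM KCl, 4 mM MgCl2, without or with constant ligand.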

[2] = test system: MS2 coat protein; assay: apparent KD of MS2 coat protein, switch OFF state (with FMN for OFF switches, without FMN for ON switches); designed switch direction (-1 OFF switch, 1 ON switch): -1; higher = weaker reporter binding; settings: FMN input: 0 or 200 uM; Eterna round: R93 (includes R88 designs)
In short: as §1

Row | Sequence | apparent KD of MS2 coat protein [1] [nM] | apparent KD of MS2 coat protein [2] [nM]
1 | AAGAACGCAGGAUAUACUAAAGAAAUGAAAAGAAAUAAAGAACAUGAGGAUCACCCAUGUAGAAGGGCGAAGAA [Merdjefare] | 39.4 | 32.1
2 | AAAGGGUCAGGAUAUGUACGAACAACAAAACAAAUAACGGUACAGAAGGGACAUGAGGAUCACCCAUGUAUAAA [May 73] | 51.9 | 64.1
3 | CACGUACAUGAGGAUCACCCAUGUUAGGAUAUGCCGAAAAAAAAAAAAAAAAAAAUCAGCAGAAGGAACGAAAC [Bilbo Confounded 19 - Jieux - Exclusion 1] | 40.2 | 36
4 | AAUAACAGAGGAUAUACUAAAGAAAUGAAAAGAAAUAAAGAACAUGAGGAUCACCCAUGUAGAAGGCUGAAUAA [Sheneh] | 16.9 | 21.5
5 | GGUUGUGUAGGAUAUACAUGAGGAUCACCCAUGUGAGAGAAAAAAGUGAGAAAGAAAAGUAGAAGGACGUGACG [salish99-ex3-72] | 45.3 | 42.7
6 | AAAAAGGUAGGAUAUACAUGAGGAUCACCCAUGUACAUAAAUGGAGAAAAAAACAGUAGUAGAAGGGCCAAAAA [Ex3 Malc#10] | 29.5 | 36.9
7 | AAAAAGGGAGGAUAUACAUGAGGAUCACCCAUGUAUCAGACGAAAAAGAGUCUGGAAUGUAGAAGGCCCAAAAA [65%, Moding Exclusion3-cac2, 3] | 14.3 | 25
8 | AGCAAGUCAGGAUAUGCGAAGUCAGGACACACACUGACGAAGCAGAAGGGACAUGAGGAUCACCCAUGUAAGCA [JR_Exclusion4_Sub6] | 42.5 | 39.3
9 | AAAGGACGAGGAUAUACAUGAGGAUCACCCAUGUAAAAAACGUAAGAAAAGAAGUUAUGUAGAAGGCGUCCAAA [69%, Moding Meechl, 14] | 15.5 | 20.6
10 | AAACCACAUGAGGAUCACCCAUGUGAGGAUAUGAACGAAAUAAAAUAAAAAUAAAAGUUCAGAAGGCACAAAAA [Mat - Exclusion 1 - Eli mod - D14] | 18.2 | 20.6
11 | AAAAAACAUGAGGAUCACCCAUGUGAGGAUAUGCAAAACCCAUAUAAAAAGAGAAAAAGCAGAAGGCACAAAAA [wbt round 1 mod] | 25.8 | 40.4
12 | AUAGUACAUGAGGAUCACCCAUGUCAGGAUAUCGGAUAUGACAUGAAAAACAUGUUAACGAGAAGGGACUAUAA [EX1 Malc#19] | 26.2 | 36.6
13 | AAAGGACAUGAGGAUCACCCAUGUGAGGAUAUGCGAAAAAAAAAAAUAAAAAAAAAAAGUAGAAGGCACACCAA [Mat - Exclusion 1 - Eli mod - D57] | 99.4 | 128
14 | AACAGUACAGGAUAUACAUGAGGAUCACCCAUGUGAGAAUUAAGUGGCGUACCACAAAGUAGAAGGGUACUGAA [Mat - Exclusion 3 - JL mod - D6] | 30.8 | 97.3
15 | GGAAAGUGAGGAUAUGCAUAACAAAUACAAAGAGAAACAAAGCAGAAGGCACAUGAGGAUCACCCAUGUAAACA [Exclusion 4 Float] | 27.3 | 22.7
16 | AGGAAGUGAGGAUAUGCAGCAUAUAGUGGACGCUAUAGCAUGUAGAAGGCACAUGAGGAUCACCCAUGUUUAAA [EX4 Malc#38] | 30.8 | 34.9
17 | CCAAAGUGAGGAUAUACGCGAACAAAAAAAAAAAAGAAAGCGUAGAAGGCACAUGAGGAUCACCCAUGUCCAGG [Alfred 64% 1] | 41 | 99.3
18 | GUCCUACAUGAGGAUCACCCAUGUCAGGAUAUGUAGCGUCCGAGCGAAAAGGCCCGGAGCAGAAGGGACAGGUG [Maisbia] | 16.1 | 20.1
19 | AAGGUACGAGGAUAUACAUAGAUACAGAUACAUGUAGACGUACAUGAGGAUCACCCAUGUAGAAGGCGUAUAUA [AJ 24] | 46.8 | 83
20 | AACAUGUCAGGAUAUGUACGAAAAAAUAAAAAAAUAAAAGUACAGAAGGGACAUGAGGAUCACCCAUGUCAAAA [EX4 394: Minimal 7] | 33.4 | 47.4
21 | AACAAACAUGAGGAUCACCCAUGUAAGGAUAUGCAACAAAAACAAAAAACAAAAAAAAGCAGAAGGUACAACAA [Amethyst 99] | 25.6 | 28.8
22 | GAAAUACGAGGAUAUACAUGAGGAUCACCCAUGUCAAAAAAUGACUACACAAAAGAAAGUAGAAGGCGUAAAAG [Mat - Exclusion 3 - Mayanna mod - D128] | 28.6 | 38.4
23 | GAAGAACAUGAGGAUCACCCAUGUCAGGAUAUGCACUACGGAAUAAUAAGUAAUGGAAGUAGAAGGGACAAGAA [Ex 1 May 53] | 26.2 | 26.4

Row | Sequence | apparent KD of MS2 coat protein [1] [nM] | apparent KD of MS2 coat protein [2] [nM]
24 | AACAGGUCAGGAUAUGUGGAAAAAAUAAAAAAAAAUAAAACACAGAAGGGACAUGAGGAUCACCCAUGUAAAUA [Mat - Exclusion 4 - Mayanna - D142] | 68.7 | 59.2
25 | AGCUAGUCAGGAUAUGCAUGAAAAAAAAAAAAAAAAAAAAAACAUGAGGAUCACCCAUGUAGAAGGGACUAGCA [Starry Exclusion 2 (jandersonlee round 1 mod)] | 126 | 212
26 | AACUGACAUGAGGAUCACCCAUGUCAGGAUAUGACAUCGAGAAAAAAAAAAAUCGUUGUCAGAAGGGACAUGAA [Design 78: Sub-opt T] | 12.4 | 13.6
27 | AAAAAACAUGAGGAUCACCCAUGUAAGGAUAUCGGAAAAGGAAAAAAAAAAAAUAAGACGAGAAGGUACACCAA [Mat - Exclusion 1 - Eli mod - D79] | 23.3 | 31.2
28 | CCCAUGUCAGGAUAUCAGUAGUAAAAAAAAAAAAUUACUACUGAGAAGGGACAUGAGGAUCACCCAUGUCAAAA [EX4 315: Super Stable 15] | 80.2 | 21
29 | ACCAGACAUGAGGAUCACCCAUGUCAGGAUAUCUAGAAAACCUCAUGUAAAAAAAUCUAGAGAAGGGAUAUGGA [Design 94: Pseudoknot D] | 40.6 | 54.7
30 | AAAGGACGAGGAUAUACAUGAGGAUCACCCAUGUAAAAAGCGUAGUAAAAGAACUUAUGUAGAAGGCGUCCAAA [Meechl Ex3 2 R2 v3] | 59.4 | 137
31 | AAGAAGAGAGGAUAUACAUGAGGAUCACCCAUGUAAAAGAAAGAGGGAAAAGAGAAAAGUAGAAGGCUCAAGAA [Arsinoe II] | 23.9 | 37
32 | CCUAAACAUGAGGAUCACCCAUGUGAGGAUAUGAUGCGAAUAAAGAAAGAAGAAAGCAUCAGAAGGCACAUAGG | 41.1 | 283
33 | AAAAAGCGAGGAUAUACAUGAGGAUCACCCAUGUCAAAAGGUAAGACCGCAGAAAAAAGUAGAAGGCGCAAAAA [Exclusion3-01] | 68.1 | 172
34 | AAAAAGUCAGGAUAUCGGAAAAUAAAAAUAAAAAUAAAAAACGAGAAGGGACAUGAGGAUCACCCAUGUAUGAC [Mat - Exclusion 4 - Mayanna - D114] | 27.6 | 24.6
35 | AGUCAGAGAGGAUAUACAAGGGAAAAAAAAGUUAGAUCCCUACAUGAGGAUCACCCAUGUAGAAGGCUCUGACA [Ex2 Design 152: Sub-opt 16] | 108 | 49.2
36 | UCCUCACAUGAGGAUCACCCAUGUCAGGAUAUCUCACAGCGAAAGAAUAAAGGCUGCAAGAGAAGGGACACAAA [Raisa] | 22.7 | 44.2
37 | GGUUGGCGAGGAUAUACAUGAGGAUCACCCAUGUGAGAGAUAAAAGUGAGAAAGAAAAGUAGAAGGCGCUGACG [salish99-ex3-45] | 29.2 | 65
38 | GGUUGGCGAGGAUAUACAUGAGGAUCACCCAUGUGAGAGAAAAAAGUGAGAAAGAAAAGUAGAAGGCGCUGACU [salish99-ex3-04] | 54.5 | 262
39 | AAGAAGCAAGGAUAUACAUGAGGAUCACCCAUGUAAAAGAAAGAAGGGAAAGAGAAAAGUAGAAGGUGCAAGAA [Shepsesre Tefnakhte] | 25.7 | 30.1
40 | ACCGAACAUGAGGAUCACCCAUGUGAGGAUAUAGACGCAAAUUAAACGCGUAACAAAACUAGAAGGCACUGGGC [Veais] | 27.6 | 15.3
41 | AAAUGUCUAGGAUAUACAUGAGGAUCACCCAUGUGUAAAAAUAAAUACACAAAAGAAAGUAGAAGGAGACAAAA [Ex 3 May 13] | 22.4 | 47.3
42 | AAAACACAUGAGGAUCACCCAUGUGAGGAUAUGCUAUGGAAAAUAAAAAUAAAACAUAGCAGAAGGCACAAAGG [Denovo 18] | 32.9 | 244
43 | AGCUAGUCAGGAUAUACGAACAUGUCAAAAGACGUGAAGGGACAUGAGGAUCACCCAUGUAGAAGGGACUAGCC [salish99-Ex2-17] | 33.2 | 145
44 | AUAAAGUGAGGAUAUACAUGAGGAUCACCCAUGUAAGAAAUAAAAUAAAUAAAGGGAAGUAGAAGGCACAAAUA [Denovo 1] | 35.8 | 41.3
45 | CCUGUGUGAGGAUAUGGUGUAAAAAAAAAAAAAUAGCUCCUCCAGAAGGCACAUGAGGAUCACCCAUGUCGUGG [Jolly's Folly 18 - Jieux - Exclusion 4] | 32.9 | 65.8
